In test [1] the target is T1, cynomolgus monkey CCR8 expressed on cells (cynomolgus monkey, UniProt G7NYJ2 1-355).
T1 construct: whole, on cells; also called cyno CCR8; CyCCR8
Kind of test: on-cell affinity, flow cytometry on 293T cells expressing cyno CCR8. Background: In flow cytometry, cells or beads pass a laser one at a time.
Target sequence in this assay (G7NYJ2 entry or part of it): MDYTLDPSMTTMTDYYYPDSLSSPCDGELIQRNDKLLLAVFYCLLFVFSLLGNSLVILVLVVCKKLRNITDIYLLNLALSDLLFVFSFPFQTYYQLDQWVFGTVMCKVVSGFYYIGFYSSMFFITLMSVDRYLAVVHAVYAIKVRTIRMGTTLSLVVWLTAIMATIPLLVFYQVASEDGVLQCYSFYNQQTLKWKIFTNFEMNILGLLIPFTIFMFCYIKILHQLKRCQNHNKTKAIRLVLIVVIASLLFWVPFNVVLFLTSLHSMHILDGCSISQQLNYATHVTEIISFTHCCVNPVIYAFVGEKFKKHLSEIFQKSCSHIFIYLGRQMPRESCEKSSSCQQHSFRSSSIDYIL

Test [2] concerns the target T2, human CCR8 (C-C chemokine receptor type 8) expressed on cells (human, UniProt P51685 1-355).
T2 construct: also called HuCCR8
Kind of test: on-cell affinity, flow cytometry on 293T cells expressing human CCR8.

Test [3] deals with T3, mouse CCR8 expressed on 293T cells (mouse, UniProt P56484 1-353).
T3 construct: whole, on cells
T3 sequence (looked up): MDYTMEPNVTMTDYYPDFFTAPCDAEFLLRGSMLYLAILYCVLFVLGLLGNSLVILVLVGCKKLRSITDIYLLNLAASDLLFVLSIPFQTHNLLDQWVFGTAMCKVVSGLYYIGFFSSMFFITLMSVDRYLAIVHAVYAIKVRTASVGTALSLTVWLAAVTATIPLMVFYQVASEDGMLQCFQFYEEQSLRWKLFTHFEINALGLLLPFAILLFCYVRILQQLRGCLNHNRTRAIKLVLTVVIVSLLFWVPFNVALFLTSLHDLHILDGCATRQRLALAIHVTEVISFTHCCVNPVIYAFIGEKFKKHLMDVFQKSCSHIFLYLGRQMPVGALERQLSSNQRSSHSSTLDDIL
Kind of test: flow cytometry, mouseCCR8-293T cells, fold geomean over secondary alone.

Test [4] deals with T4, Cynomolgus CCR8-ECD-Fc (cynomolgus monkey).
T4 construct: also called CyCCR8-ECD-Fc; Cynomolgus CCR8-Fc
T4 chain: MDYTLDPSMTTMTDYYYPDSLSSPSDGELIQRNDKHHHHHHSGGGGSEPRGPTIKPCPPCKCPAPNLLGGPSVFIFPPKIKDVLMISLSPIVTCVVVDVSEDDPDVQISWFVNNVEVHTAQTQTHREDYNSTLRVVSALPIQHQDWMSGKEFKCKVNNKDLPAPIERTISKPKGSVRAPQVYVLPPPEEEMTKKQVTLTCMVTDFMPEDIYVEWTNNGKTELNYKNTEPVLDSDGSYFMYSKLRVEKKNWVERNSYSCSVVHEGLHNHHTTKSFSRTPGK
Description: binding to CyCCR8-ECD-huFc protein (so in the source), OD45-570nm (so in the source).

In test [5] the target is T5, Human CCR8-ECD-Fc (human).
T5 construct: also called HuCCR8-ECD-Fc; huCC8-ECD-Fc
T5 chain: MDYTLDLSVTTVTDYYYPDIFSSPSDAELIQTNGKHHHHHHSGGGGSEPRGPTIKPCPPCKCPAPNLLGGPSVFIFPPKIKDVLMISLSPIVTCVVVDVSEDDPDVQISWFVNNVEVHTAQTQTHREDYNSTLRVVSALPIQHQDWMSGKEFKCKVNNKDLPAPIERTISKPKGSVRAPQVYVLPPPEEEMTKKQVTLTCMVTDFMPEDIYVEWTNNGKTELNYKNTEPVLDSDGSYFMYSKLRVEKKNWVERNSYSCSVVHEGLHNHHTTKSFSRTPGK
Kind of test: binding to HuCCR8-ECD-moFc protein (so in the source), OD45-570nm (so in the source).

Test [6] deals with T3, mouse CCR8 expressed on 293T cells. Kind of test: flow cytometry, mouseCCR8-293T cells, fold geomean over secondary alone. This is another data set of the same source.
Test [7] concerns the target T4, Cynomolgus CCR8-ECD-Fc. Kind of test: binding to CyCCR8-ECD-huFc protein (so in the source), OD45-570nm (so in the source).
The target of test [8] is T5, Human CCR8-ECD-Fc. Kind of test: binding to HuCCR8-ECD-moFc protein (so in the source), OD45-570nm (so in the source).
In test [9] the target is T4, Cynomolgus CCR8-ECD-Fc. Description: binding to CyCCR8-ECD-Fc protein, OD450-570 nm.
The target in test [10] is T5, Human CCR8-ECD-Fc. Kind of test: binding to HuCCR8-ECD-Fc protein, OD450-570 nm.
The target in test [11] is T1, cynomolgus monkey CCR8 expressed on …. Kind of test: on-cell affinity, flow cytometry on 293T cells expressing cyno CCR8. The source holds these as a separate data set.
The target in test [12] is T2, human CCR8 (C-C chemokine receptor type …). Description: on-cell affinity, flow cytometry on 293T cells expressing human CCR8. This is another data set of the same source.
Test [13] deals with T3, mouse CCR8 expressed on 293T cells. Kind of test: flow cytometry, MoCCR8-293T cells, fold geomean over secondary alone.
Test [14] has as its target T5, Human CCR8-ECD-Fc. Kind of test: binding to HuCCR8-ECD-Fc protein, OD450-570nm.
In test [15] the target is T4, Cynomolgus CCR8-ECD-Fc. Kind of test: binding to CynoCCR8-ECD-Fc protein, OD450-570nm.
The target in test [16] is T1, cynomolgus monkey CCR8 expressed on …. Kind of test: on-cell affinity, flow cytometry on 293T cells expressing cyno CCR8. This is another data set of the same source.
Target sequence in this assay (G7NYJ2 entry or part of it): as the sequence (G7NYJ2 entry or part of it) above
The target in test [17] is T2, human CCR8 (C-C chemokine receptor type …). Description: on-cell affinity, flow cytometry on 293T cells expressing human CCR8. This is another data set of the same source.
The target is the same in test [18]. Kind of test: flow cytometry, HuCCR8-293T cells, fold geomean over secondary alone.
Test [19] concerns the target T3, mouse CCR8 expressed on 293T cells. Description: flow cytometry, MoCCR8-293T cells, fold geomean over secondary alone. The source holds these as a separate data set.
In test [20] the target is T4, Cynomolgus CCR8-ECD-Fc. Description: binding to CyCCR8-ECD-Fc protein, OD450-570 nm.
In test [21] the target is T5, Human CCR8-ECD-Fc. Kind of test: binding to HuCCR8-ECD-Fc protein, OD450-570 nm.
For test [22], the target named is T3, mouse CCR8 expressed on 293T cells. Kind of test: flow cytometry, MoCCR8-293T cells, fold geomean over secondary alone. The source holds these as a separate data set.
Test [23] has as its target T4, Cynomolgus CCR8-ECD-Fc. Description: binding to CyCCR8-ECD-Fc protein, OD450-570 nm.
Test [24] addresses T5, Human CCR8-ECD-Fc. Description: binding to HuCCR8-ECD-Fc protein, OD450-570 nm.
The target of test [25] is T3, mouse CCR8 expressed on 293T cells. Description: flow cytometry, MoCCR8-293T cells, fold geomean over secondary alone. The source holds these as a separate data set.
Test [26] deals with T1, cynomolgus monkey CCR8 expressed on …. Kind of test: flow cytometry, CynoCCR8-293T cells, fold geomean over secondary alone.

Like-named read-outs stand apart in the source and are kept apart here.

T2 sequence (P51685 whole entry): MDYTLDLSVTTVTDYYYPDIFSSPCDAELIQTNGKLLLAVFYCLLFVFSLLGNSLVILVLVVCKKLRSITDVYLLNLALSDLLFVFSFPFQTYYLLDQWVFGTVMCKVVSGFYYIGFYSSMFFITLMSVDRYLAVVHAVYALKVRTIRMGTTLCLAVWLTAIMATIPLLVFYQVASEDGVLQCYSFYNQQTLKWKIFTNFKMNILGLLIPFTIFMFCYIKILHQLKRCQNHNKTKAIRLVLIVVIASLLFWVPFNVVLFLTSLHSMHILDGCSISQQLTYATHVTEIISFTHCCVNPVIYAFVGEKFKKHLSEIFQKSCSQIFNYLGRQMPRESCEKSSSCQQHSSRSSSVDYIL

B1: anti-CCR8-1-4 (antibody, V domains shown)
VH: QVQLVQSGAEVKKPGASVKVSCKASGYTFTSYYMHWVRQAPGQGLEWMGIINPSGGSTSYAQKFQGRVTMTRDTSTSTVYMELSSLRSEDTAVYYCARGVGNGFRFDYWGQGTLVT
VL: QSALTQPASVSGSPGQSITISCSGTSSNIGKYNLVSWYQQHPGEAPTLLIYEATKRPSGVSNRFSGSKSGNTASLTISGLQAEDEADYICSSYAGSRVFVVFGGGTKLTVL
notes: Parental-1 heavy chain with a shuffled lambda light chain; Human IgG expressed in CHO cells
In the case of B1, the Kd (in general, the free concentration of one partner at which half of the binding sites on the other are occupied at equilibrium, for simple one-to-one binding) stood at 35.9 nM in test [1] and 0.28 nM in test [2]. Besides, the binding result is recorded as “no binding (tested: 10 ug/ml)” in test [3], “binds” in test [4] and “binds” in test [5].

B2: anti-CCR8-1-5 (antibody, V domains shown)
VH: QVQLVQSGAEVKKPGASVKVSCKASGYTFTSYYMHWVRQAPGQGLEWMGIINPSGGSTSYAQKFQGRVTMTRDTSTSTVYMELSSLRSEDTAVYYCARGVGNGFRFDYWGQGTLVT
VL: QSALTQPPSVSGSPGQSITISCSGTSSDVGSYNLVSWYQQEPGKAPKLIIYEVNKRPSGVSNRFSGSKSGNTASLTISGLQAEDEADYHCSSYAGSSTYVVFGGGTKLTVL
notes: as for B1
As to B2, the results for the Kd in test [1] and in test [2] were 48.6 nM and 1.36 nM, respectively. Besides, the binding result in test [6] was “no binding (tested: 10 ug/ml)”; in test [7] it was “binds”; in test [8] it was “binds”.

B3: anti-CCR8-2 (antibody, V domains shown)
VH: EVQLLESGGGLVQPGGSLRLSCAAGGFTFSAYTMNWVRQAPGKGLEWVSAISASGGRTYYADSVKGRFTISRDNSKNTLYLQMNSLRAEDTAVYYCARRFARGWFDPWGQGTLVTVSS
VL: QSVLTQPPSVSAAPGQKVTISCSGSSSNIGNNYVSWYQQLPGTAPKLLIYDNNKRPSGIPDRFSGSKSGTSATLGITGLQTGDEADYYCGTWDSSLSAWVFGGGTKLT
notes: Cloned into mammalian expression vectors; human IgG; also called heavy chain H23727
On to B3, for which the binding result in test [9] was “binds”; in [10], “binds”; in test [13] it was “no binding (tested: 10 ug/ml)”. Besides, the values for the Kd in test [11] and in [12] were 0.94 nM and 0.41 nM, respectively.

B4: anti-CCR8-2-6 (antibody, V domains shown)
VH: EVQLVESGGGLVQPGRSLRLSCAASGFTFDDYAMHWVRQAPGKGLEWVSGISWNSGSIGYADSVKGRFTISRDNSKNSLYLQMNSLRAEDTALYYCARGRVSYRESLRFDYWGQGTLVT
VL: QSVLTQPPSVSAAPGQKVTISCSGSSSNIGNNYVSWYQQLPGTAPKLLIYDNNKRPSGIPDRFSGSKSGTSATLGITGLQTGDEADYYCGTWDSSLSAWVFGGGTKLT
notes: Human IgG
As to B4, the EC50 (read off the curve) (usually the concentration giving half of the maximal effect) was roughly 0.04 µg/mL in test [14], roughly 0.04 µg/mL in [15] and roughly 2 µg/mL in test [18]. Besides, the figures for the Kd in [16] and in [17] were 4.5 nM and 1.5 nM, respectively. Moreover, the binding result in test [19] is on record as “no binding (tested: 10 ug/ml)”.

B5: anti-CCR8-2-1 (antibody, V domains shown)
VH: EVQLLESGGGLVQPGGSLRLSCAARGFIFSGYTMLWVRQAPGKGLEWVSAITASGGRTYYADSVKGRFTISRDNSKNTLYLQMNSLRAEDTAVYYCARRFARGWFDPWGQGTLVTVSS
VL: QSVLTQPPSVSAAPGQKVTISCSGSSSNIGNNYVSWYQQLPGTAPKLLIYDNNKRPSGIPDRFSGSKSGTSATLGITGLQTGDEADYYCGTWDSSLSAWVFGGGTKLT
notes: Human IgG from a mammalian expression vector
As to B5, the results for the binding result in test [20], in [21] and in [22] were “binds”, “binds” and “no binding (tested: 10 ug/ml)”, respectively. In addition, the figures for the Kd in test [11] and in [12] were 1.09 nM and 0.54 nM, respectively.

B6: anti-CCR8-2-2 (antibody, V domains shown)
VH: EVQLLESGGGLVQPGGSLRLSCAAGGFTFSAYTMNWVRQAPGKGLEWVSAISASGGRTYYADSVKGRFTISRDNSKNTLYLQMNSLRAEDTAVYYCARRFARGWFDPWGQGTLVT
VL: QSVLTQPPSVSAAPGQRVTISCSGSTSNIGNHYVSWYQQLPRAVPKLVIYDNDKRPSGISDRFSGSRSGTSATLDISGLQAGDEADYYCATWDYSLTAVVFGGGTKLTVL
notes: Heavy chain of anti-CCR8-2 (H23727) cross-paired with a shuffled lambda light chain; Human IgG
On to B6, for which the binding result in test [23] is “binds”; in test [24], “binds”; in [25], “no binding (tested: 10 ug/ml)”. For the same molecule, the results for the dissociation constant (Kd) in [11] and in [12] were 1.6 nM and 0.8 nM, respectively. For the same molecule, in test [26], the “EC50 (read off the curve)” value was roughly 1 µg/mL.

The record behind these values is patent US20210238292A1 (VACCINEX, published 2021).
